From patent publication US20090252729A1

Legend:
[1] = target: cynomolgus FcγR IIa (CD32a) (cynomolgus); test: Alphascreen assay, cynomolgus FcγR CD32a (R)
[2] = target: cynomolgus FcγR III (CD16a) (cynomolgus) (UniProt Q8SPW2); test: Alphascreen assay, cynomolgus FcγR CD16a
[3] = target: human FcRIII-GST (CD16a, V158) (human) (UniProt P08637); test: Alphascreen assay, human FcγR CD16a
Sequence of human FcRIII-GST (CD16a, V158) (human) (P08637 17-208 F176V limits assumed): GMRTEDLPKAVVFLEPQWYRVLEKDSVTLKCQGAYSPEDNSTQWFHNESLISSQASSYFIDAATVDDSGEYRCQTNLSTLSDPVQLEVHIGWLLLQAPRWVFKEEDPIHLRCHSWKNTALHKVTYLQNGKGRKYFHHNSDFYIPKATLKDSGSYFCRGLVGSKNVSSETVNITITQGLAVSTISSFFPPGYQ

Sequence of cynomolgus FcγR III (CD16a) (cynomolgus) (Q8SPW2 17-208 limits assumed): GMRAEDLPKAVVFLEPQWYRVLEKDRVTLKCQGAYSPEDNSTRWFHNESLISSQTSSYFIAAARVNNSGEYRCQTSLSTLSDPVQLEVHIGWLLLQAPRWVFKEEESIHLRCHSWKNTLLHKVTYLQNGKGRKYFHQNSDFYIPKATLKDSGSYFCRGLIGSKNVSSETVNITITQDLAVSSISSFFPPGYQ

- EC50 [1]: 1.17 µM
- EC50 [2]: 2.31 µM
- EC50 [3]: 1.84 µM
Substance: Agly 5c8 IgG1 (antibody)
